The values that follow come from patent US20210101970A1 (Pfizer, published 2021).

Usually EC50 stands for the concentration giving half of the maximal effect.

The target of assay [1] is T1, human CXCR5 (human, UniProt P32302 1-372).
T1 construct: also called hCXCR5; C-X-C chemokine receptor type 5
T1 sequence: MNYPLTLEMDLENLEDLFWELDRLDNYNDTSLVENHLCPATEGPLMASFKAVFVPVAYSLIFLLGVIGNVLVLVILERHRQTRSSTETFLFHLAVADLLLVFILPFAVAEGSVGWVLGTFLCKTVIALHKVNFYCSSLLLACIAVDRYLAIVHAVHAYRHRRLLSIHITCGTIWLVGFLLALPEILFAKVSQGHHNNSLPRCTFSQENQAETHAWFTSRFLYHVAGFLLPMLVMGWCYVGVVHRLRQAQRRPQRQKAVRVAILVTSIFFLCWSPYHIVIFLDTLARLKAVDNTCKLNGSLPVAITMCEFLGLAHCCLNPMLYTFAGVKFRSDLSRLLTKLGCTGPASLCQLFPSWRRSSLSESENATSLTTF
The assay can be described thus: flow cytometry, human PBMC B cells. (In flow cytometry, cells or beads pass a laser one at a time.)

The target of assay [2] is T1, human CXCR5. In words: flow cytometry, human PBMC Tfh-like cells. As for the experimental part:
(§1) The apparent affinity for cell surface CXCR5 of chimeric and humanized CXCR5 fucosylated and afucosylated antibodies was assessed. More specifically, to determine the apparent affinity of chimeric and humanized CXCR5 antibodies to CXCR5-expressing cells, cell binding experiments were performed on human and cynomolgus monkey peripheral blood mononuclear cells (PBMCs) and human tonsillar mononuclear cells (TMCs). The apparent affinity of CXCR5 mab binding to CXCR5+ cells (B cells, bona fide Tfh cells, and circulating Tfh-like cells) was calculated as the EC50 of equilibrium binding titration curves in which the geometric mean fluorescence intensity (gMFI) of the antigen binding population was quantified by flow cytometry.
(§2) Following isolation, PBMCs were plated at a density of 1.0×10⁵ cells per well and CD4+ TMCs were plated at a density of 2.0×10⁵ cells per well in isolation buffer (PBS containing 1% FBS and 1 mM EDTA) in 96 well U-bottom plates. The plates were then centrifuged at 1500 rpm for 5 minutes at room temperature. PBMCs and CD4+ TMCs were resuspended in Fluorescence-activated cell sorting (FACS) buffer (PBS containing 1% FBS) containing human crystallized fragment Fc block (2 μL per well; Biolegend) and 4-fold serial dilutions of the antibodies (11-point dilution series, beginning at 5000 ng/mL for PBMCs and 312.5 ng/mL for CD4+ TMCs) and incubated on ice for 2 hours. […]

Assay [3] addresses T2, cynomolgus monkey CXCR5 (cynomolgus monkey, UniProt P32302 1-372 (human entry)).
T2 construct: also called cynoCXCR5; NHP CXCR5
T2 chain: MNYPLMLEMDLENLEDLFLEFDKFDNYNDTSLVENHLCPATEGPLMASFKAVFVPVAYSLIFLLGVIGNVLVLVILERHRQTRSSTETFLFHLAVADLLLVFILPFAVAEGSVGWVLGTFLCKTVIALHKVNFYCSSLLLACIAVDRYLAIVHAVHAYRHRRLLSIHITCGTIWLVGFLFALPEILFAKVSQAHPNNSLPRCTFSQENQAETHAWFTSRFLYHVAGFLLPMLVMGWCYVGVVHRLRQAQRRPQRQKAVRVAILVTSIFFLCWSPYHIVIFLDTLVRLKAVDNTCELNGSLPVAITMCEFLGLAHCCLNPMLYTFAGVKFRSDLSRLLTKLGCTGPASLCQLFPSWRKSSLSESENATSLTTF
In words: flow cytometry, cynomolgus PBMC Tfh-like cells. As for the experimental part:
as §1, §2

The next assay has as its target T3, XC278 (human, UniProt P32302 2-372).
T3 construct: also called hCXCR5 L11T
T3 sequence: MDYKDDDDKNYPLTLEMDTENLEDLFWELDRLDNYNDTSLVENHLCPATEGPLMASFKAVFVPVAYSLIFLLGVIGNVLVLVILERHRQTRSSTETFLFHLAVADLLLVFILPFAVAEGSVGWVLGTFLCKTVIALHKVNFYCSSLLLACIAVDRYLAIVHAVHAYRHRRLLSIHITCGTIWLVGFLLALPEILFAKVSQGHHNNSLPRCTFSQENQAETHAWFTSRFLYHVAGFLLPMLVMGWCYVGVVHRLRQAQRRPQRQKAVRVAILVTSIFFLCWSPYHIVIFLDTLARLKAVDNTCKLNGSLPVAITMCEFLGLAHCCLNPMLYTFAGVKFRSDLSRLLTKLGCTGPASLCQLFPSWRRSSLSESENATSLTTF
In words: flow cytometry on HEK-293T cells transiently expressing the FLAG-tagged mutein; ratio of gMFI of the antibody to gMFI of anti-FLAG PE. As for the experimental part: The cells were analyzed by flow cytometry using an Accuri (BD Biosciences Franklin Lakes, N.J.). The geometric mean fluorescence intensity (gMFI) was determined and the ratio for the gMFI of each CXCR5 antibody and anti-flag was calculated.

The target of assay [4] is T1, human CXCR5. The assay can be described thus: cell-based or functional assay.
Assay [5] has as its target T1, human CXCR5. The assay can be described thus: cell-based or functional assay. This is another data set of the same source.
The target in assay [6] is T1, human CXCR5. In words: flow cytometry on Raji cells.
The target in assay [7] is T2, cynomolgus monkey CXCR5. In words: flow cytometry on cynoCXCR5-300.19 cells.
Assay [8] deals with T1, human CXCR5. In words: flow cytometry on Raji cells, gMFI titration. As for the experimental part:
The apparent affinity of antibody binding to Raji cells was calculated as the EC₅₀ of equilibrium binding titration curves in which the geometric mean fluorescence intensity (gMFI) of the antigen binding population was quantified by flow cytometry and the results are shown in Table 2.

B1: Afucosyl humanized 11G2 154/155 (antibody, human IgG1, kappa, V domains shown)
VH: EVQLVESGGGLVQPGGSLRLSCAASGFTFTDFYMSWVRQAPGKGLEWVGFIRNKANGYTTEYSASVKGRFTISRDNAKNSLYLQMNSLRAEDTAVYYCARVYGSTLHYWGQGTLVTVSS
VL: DIQMTQSPSSLSASVGDRVTITCRASESVEYHGTSLMHWYQQKPGKAPKLLIYAASNVESGVPSRFSGSGSGTDFTLTISSLQPEDFATYYCQQSRKVPWTFGQGTKVEIKR
modifications: afucosylated Fc glycan (Asn297)
notes: also called afucosyl h11G2 XC154/XC155; afucosylated h11G2 VL XC154/VH XC155
For B1, in the assay with human CXCR5 [1], the “fold higher affinity than 2C9” value is around 10 fold and the “fold higher affinity than 11A7” value is around 100 fold. This molecule also came in with an EC50 in the assay with human CXCR5 [2] of 0.00589 nM. This molecule also came in with an EC50 in the assay with cynomolgus monkey CXCR5 [3] of 0.0105 nM. The binding result in the assay with XC278 was “no binding (tested: 1 or 3 µg/ml (not on the sheet))”.

B2: 2C9 (reference antibody) (antibody, human IgG1, kappa, V domains shown)
VH: EVQLVESGGGLVKPGGSLRLSCAASGFTFSTNAMNWVRQAPGKGLERVARIRSKSNNYATYYADSVKDRFTISRDDSKNTLYLQMNSLKTEDTAVYYCVTMIPFAYWGQGTLVTVSS
VL: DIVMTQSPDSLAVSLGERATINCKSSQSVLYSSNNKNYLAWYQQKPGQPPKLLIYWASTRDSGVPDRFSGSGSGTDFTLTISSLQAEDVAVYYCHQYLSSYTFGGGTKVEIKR
notes: fucosylated
In the case of B2, in the assay with human CXCR5 [4], the “Ca2+ flux IC50” value was determined as 3.49 nM. Also, in the assay with human CXCR5 [5], the “% Inhibition CXCL13” value was determined as 114%. Moreover, the “EC50, stimulation of CXCL13-inhibited cAMP production” value with human CXCR5 [5] amounted to 0.793 nM. For the same molecule, the values for the EC50 in the assay with human CXCR5 [6], in the assay with cynomolgus monkey CXCR5 [7] and in the assay with human CXCR5 [8] were 0.0999 nM, 0.131 nM and 0.21 nM, respectively.
